Laboratory results published in patent US20260166139A1.
“And” between values parts separate entries of the source, which are not always exact repeats. Equal entries are not always repeated.

Experiments:
murine CTLA4 (murine) [1] = biological target: murine CTLA4 (murine) (UniProt P09793); assay: ELISA, coat murine CTLA4 0.5 ug/ml; antibody 0.1 ug/ml
murine CTLA4 (murine) [2] = biological target: murine CTLA4 (murine) (UniProt P09793); assay: ELISA, coat murine CTLA4 0.5 ug/ml; antibody 0.003 ug/ml
murine CTLA4 (murine) [3] = biological target: murine CTLA4 (murine) (UniProt P09793); assay: ELISA, coat murine CTLA4 0.5 ug/ml; antibody 0.3 ug/ml
murine CTLA4 (murine) [4] = biological target: murine CTLA4 (murine) (UniProt P09793); assay: ELISA, coat murine CTLA4 0.5 ug/ml; antibody 0.001 ug/ml
murine CTLA4 (murine) [5] = biological target: murine CTLA4 (murine) (UniProt P09793); assay: ELISA, coat murine CTLA4 0.5 ug/ml; antibody 1 ug/ml
murine CTLA4 (murine) [6] = biological target: murine CTLA4 (murine) (UniProt P09793); assay: ELISA, coat murine CTLA4 0.5 ug/ml; antibody 0 ug/ml (blank)
murine CTLA4 (murine) [7] = biological target: murine CTLA4 (murine) (UniProt P09793); assay: ELISA, coat murine CTLA4 0.5 ug/ml; antibody 0.03 ug/ml
murine CTLA4 (murine) [8] = biological target: murine CTLA4 (murine) (UniProt P09793); assay: ELISA, coat murine CTLA4 0.5 ug/ml; antibody 0.01 ug/ml
murine CTLA4 (murine) [9] = biological target: murine CTLA4 (murine) (UniProt P09793); assay: ELISA on coated CTLA4, source Mouse
murine CTLA4 (murine) [10] = biological target: murine CTLA4 (murine) (UniProt P09793); assay: ELISA on coated CTLA4, source taken as Mouse; second unlabelled line under 8D2 / Mouse; the run in which 10D1 gave […] and 11.2.1 was not measured
murine CTLA4 (murine) [11] = biological target: murine CTLA4 (murine) (UniProt P09793); assay: ELISA on coated CTLA4, source taken as Mouse

B1: monoclonal antibody 8D2 (antibody, V domains shown)
VH: EVKLDETGGGLVQPGRPMKLSCVASGFTFSDNWMNWVRQSPEKGLEWLAQIRNKPYNYETYYSDSVKGRFTISRDDSKSSVYLQMNNLRGEDMGIYYCTAQFAYWGQGTLVTVSA
VL: DIQMTQSPASLSASVGETVTITCGTSENIYGGLNWYQRKQGKSPQLLIFGATNLADGMSSRFSGSGSGRQYSLKISSLHPDDVATYYCQNVLRSPFTFGSGTKLEI
Murine CTLA4 (murine) [1]
  absorbance at 450 nm: 2.75 and 2.72
Murine CTLA4 (murine) [2]
  absorbance at 450 nm: 0.784 and 0.76
Murine CTLA4 (murine) [3]
  absorbance at 450 nm: 2.81 and 2.76
Murine CTLA4 (murine) [4]
  absorbance at 450 nm: 0.358 and 0.355
Murine CTLA4 (murine) [5]
  absorbance at 450 nm: 2.82 and 2.68
Murine CTLA4 (murine) [6]
  absorbance at 450 nm: 0.063 and 0.052
Murine CTLA4 (murine) [7]
  absorbance at 450 nm: 2.34 and 2.38
Murine CTLA4 (murine) [8]
  absorbance at 450 nm: 1.61 and 1.56
Murine CTLA4 (murine) [9]
  EC50: 0.015 nM
Murine CTLA4 (murine) [10]
  EC50: 0.071 nM

B2: 8D2 recombinant antibody, 8D2(Re) (antibody, V domains shown)
VH: EVKLDETGGGLVQPGRPMKLSCVASGFTFSDNWMNWVRQSPEKGLEWLAQIRNKPYNYETYYSDSVKGRFTISRDDSKSSVYLQMNNLRGEDMGIYYCTAQFAYWGQGTLVTVSA
VL: DIQMTQSPASLSASVGETVTITCGTSENIYGGLNWYQRKQGKSPQLLIFGATNLADGMSSRFSGSGSGRQYSLKISSLHPDDVATYYCQNVLRSPFTFGSGTKLEI
Murine CTLA4 (murine) [1]
  absorbance at 450 nm: 2.8 and 2.69
Murine CTLA4 (murine) [2]
  absorbance at 450 nm: 0.662 and 0.674
Murine CTLA4 (murine) [3]
  absorbance at 450 nm: 2.69 and 2.73
Murine CTLA4 (murine) [4]
  absorbance at 450 nm: 0.315 and 0.321
Murine CTLA4 (murine) [11]
  EC50: 0.085 nM
Murine CTLA4 (murine) [5]
  absorbance at 450 nm: 2.67 and 2.77
Murine CTLA4 (murine) [6]
  absorbance at 450 nm: 0.053 and 0.046
Murine CTLA4 (murine) [7]
  absorbance at 450 nm: 2.31 and 2.26
Murine CTLA4 (murine) [8]
  absorbance at 450 nm: 1.4 and 1.45
Murine CTLA4 (murine) [9]
  EC50: 0.015 nM

B3: humanized antibody 8D2H1L1 (antibody, V domains shown)
VH: EVQLVESGGGLVQPGGSMRLSCAASGFTFSDNWMNWVRQAPGKGLEWLAQIRNKPYNYETYYSDSVKGRFTISRDDSKNSVYLQMNSLKTEDTGVYYCTAQFAYWGQGTLVTVSS
VL: DIQMTQSPSSLSASVGDRVTITCRTSENIYGGLNWYQRKQGKSPKLLIYGATNLASGMSSRFSGSGSGTDYTLKISSLHPDDVATYYCQNVLRSPFTFGSGTKLEIK
Murine CTLA4 (murine) [9]
  EC50: 0.025 nM
